Source: PMC7896311, “Structure of the SARS-CoV-2 RNA-dependent RNA polymerase in the presence of favipiravir-RTP”

Biological target: nsp12 (RNA-dependent RNA polymerase);nsp7;nsp8 (SARS-CoV-2;SARS-CoV-2;SARS-CoV-2, UniProt P0DTD1;P0DTD1;P0DTD1 4393-5324;3860-3942;3943-4140, ||)
Test: cryo-EM structure (2.5 A)
Settings: protein: recombinant;recombinant;recombinant; tags: C-terminal TEV site-double StrepII on the nsp5-nsp7-nsp8-nsp12 polyprotein;;; copies: 1;1;2

B1: primer:template RNA duplex (dsRNA)
RNA 1: CAGUGCUAUGUGAGAUUAAGUUAU
RNA 2: UUUUUCAUAACUUAAUCUCACAUAGCACUG
- binding result: binds
